Laboratory results published in PMC13044992.

What was measured:
[1] = biological target: S100i1 from Danio rerio (wild type) (Danio rerio) (UniProt Q6XG62); test: SEC; 24 mL Superdex 75 Increase 10/300 GL, 20 mM Tris-HCl pH 7.5, 100 mM NaCl; self-association (homodimer)
[2] = biological target: S100i1 from Danio rerio (wild type) (Danio rerio) (UniProt Q6XG62); test: crystal structure; sitting-drop vapor diffusion at 291 K, 10 mg/mL protein; apo S100i1 (0.2 M Li sulfate, Tris-HCl pH 8.5, 25% PEG 4000), Na+-S100i1 (0.2 M Na acetate, Tris-HCl pH 9.5, 35% PEG 4000), Mg2+-S100i2 (0.2 M MgCl2, Tris-HCl pH 8.5, 30% PEG 4000)
[3] = biological target: S100i2 from Danio rerio (wild type) (Danio rerio) (UniProt A3FKT8); test: SEC; 24 mL Superdex 75 Increase 10/300 GL, 20 mM Tris-HCl pH 7.5, 100 mM NaCl; self-association (homodimer)
[4] = biological target: S100i2 from Danio rerio (wild type) (Danio rerio) (UniProt A3FKT8); test: crystal structure; sitting-drop vapor diffusion at 291 K, 10 mg/mL protein; apo S100i1 (0.2 M Li sulfate, Tris-HCl pH 8.5, 25% PEG 4000), Na+-S100i1 (0.2 M Na acetate, Tris-HCl pH 9.5, 35% PEG 4000), Mg2+-S100i2 (0.2 M MgCl2, Tris-HCl pH 8.5, 30% PEG 4000)

stoichiometry N [1]	stoichiometry N [2]	stoichiometry N [3]	stoichiometry N [4]	Substance
2	2			S100i1 from Danio rerio (wild type) (from UniProt Q6XG62 1-95) (natural protein)
		2	2	S100i2 from Danio rerio (wild type) (from UniProt A3FKT8 1-97) (natural protein)
